We go through two molecules from PMC2978336.

For data set [1], the target named is T1, DnaD-Cd196 (Bacillus subtilis, UniProt P39787 129-196).
T1 sequence: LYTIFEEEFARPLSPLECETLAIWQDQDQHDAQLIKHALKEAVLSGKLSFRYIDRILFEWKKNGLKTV
The data set can be described thus: EMSA. A general note: In EMSA bound probe runs differently from free probe, usually more slowly.

In another data set the target is T2, DnaD-Cd206 (Bacillus subtilis, UniProt P39787 129-206).
T2 sequence: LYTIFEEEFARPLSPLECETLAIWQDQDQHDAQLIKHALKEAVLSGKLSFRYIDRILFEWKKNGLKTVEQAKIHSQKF
The data set can be described thus: NMR.

A further data set concerns the target T3, DnaD-Cd (DnaD-Cd232) (Bacillus subtilis, UniProt P39787 129-232).
T3 sequence: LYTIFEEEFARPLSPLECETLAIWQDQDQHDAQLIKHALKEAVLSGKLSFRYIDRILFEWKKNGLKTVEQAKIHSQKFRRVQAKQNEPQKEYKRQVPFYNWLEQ
The data set can be described thus: NMR.

The target of data set [2] is T1, DnaD-Cd196. The data set can be described thus: NMR.
A further data set deals with T4, DnaD-Cd215 (Bacillus subtilis, UniProt P39787 129-215).
T4 sequence: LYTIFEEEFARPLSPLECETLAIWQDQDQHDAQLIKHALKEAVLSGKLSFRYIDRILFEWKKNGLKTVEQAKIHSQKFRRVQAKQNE
Briefly: NMR.

Turning to CTCAGTTTCCGCGCGATTGACCGGATT (ssDNA) [Y180AF ss probe], in the data set with DnaD-Cd196 [1], the binding result is on record as “no binding”.
As for GTTATTGCTC (ssDNA) [10-mer ssDNA], the binding result with DnaD-Cd206 is recorded as “no binding”; in the data set with DnaD-Cd (DnaD-Cd232), “binds”; with DnaD-Cd196 [2], “no binding”; with DnaD-Cd215, “binds”.
